These results are taken from patent US20240425569A1 (VISTERRA, published 2024).

The target of experiment [1] is T1, EDIII-DV2 (E protein domain III of dengue virus serotype DV-2) (dengue virus serotype DV-2, UniProt P14337 573-677).
T1 construct: also called DENV-2; EDIII of DV-2
Description: competition ELISA.

Experiment [2] concerns the target T2, EDIII-DV3 (E protein domain III of dengue virus serotype DV-3) (dengue virus serotype DV-3, UniProt P27915 571-678).
T2 construct: also called DENV-3; EDIII of DV-3
As to the kind of experiment: competition ELISA. (In general: ELISA stands for enzyme-linked immunosorbent assay.)

Experiment [3] concerns the target T3, Brazil/2011 (serotype IV EDIII).
T3 E protein domain III (EDIII): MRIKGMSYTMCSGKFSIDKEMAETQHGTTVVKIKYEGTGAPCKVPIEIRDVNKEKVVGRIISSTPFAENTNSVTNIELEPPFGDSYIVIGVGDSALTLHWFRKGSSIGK
Description: SPR; row Brazil/2011, serotype IV, genotype I. For orientation: In SPR one partner is held on a chip, and binding of the other changes the refractive index at the surface.

Experiment [4] concerns the target T4, Mexico/2007 (serotype I EDIII).
T4 construct: also called ED3-DV1/Mexico07
T4 E protein domain III (EDIII): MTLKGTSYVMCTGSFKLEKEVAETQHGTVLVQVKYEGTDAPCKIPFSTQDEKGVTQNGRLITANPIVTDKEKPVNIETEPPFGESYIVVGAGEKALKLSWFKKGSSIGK

Experiment [5] has as its target T5, Malaysia/2005 (serotype I EDIII).
T5 construct: also called ED3-DV1/Malaysia05
T5 E protein domain III (EDIII): T4 E protein domain III (EDIII) with T6I, S14P, T48S, I61V, T78A

For experiment [6], the target named is T6, Nicaragua/2010 (serotype III EDIII).
T6 construct: also called ED3-DV3/Nicaragua10; DENV-3 Nic
T6 E protein domain III (EDIII): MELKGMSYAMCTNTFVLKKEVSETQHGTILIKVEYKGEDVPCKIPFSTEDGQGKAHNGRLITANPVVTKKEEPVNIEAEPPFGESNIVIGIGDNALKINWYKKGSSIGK

Experiment [7] deals with T7, New Guinea/1944 (NGC)* (serotype II EDIII) (Dengue virus 2).
T7 construct: isolated EDIII protein; also called EDIII of DENV-2 NGC
T7 sequence (P14340 578-673): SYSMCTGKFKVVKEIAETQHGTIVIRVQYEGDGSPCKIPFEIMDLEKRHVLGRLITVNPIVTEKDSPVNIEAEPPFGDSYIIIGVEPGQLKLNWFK
As to the kind of experiment: SPR; row New Guinea/1944 (NGC)*, serotype II, genotype Asian I.

Experiment [8] deals with T7, New Guinea/1944 (NGC)* (serotype II …). Description: ELISA; row New Guinea/1944 (NGC)*, serotype II, genotype Asian I.
The target in experiment [9] is T8, Venezuela/2007 (serotype II EDIII).
T8 construct: also called ED3-DV2/Venezuela07
T8 E protein domain III (EDIII): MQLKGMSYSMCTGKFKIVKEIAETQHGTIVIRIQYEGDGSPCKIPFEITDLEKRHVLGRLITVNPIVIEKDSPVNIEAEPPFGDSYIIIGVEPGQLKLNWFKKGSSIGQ
As to the kind of experiment: ELISA; row Venezuela/2007, serotype II, genotype SE-Asian/American.

Substitutions are numbered along the chain they refer to.

T1 sequence (P14337 573-677, tags left off): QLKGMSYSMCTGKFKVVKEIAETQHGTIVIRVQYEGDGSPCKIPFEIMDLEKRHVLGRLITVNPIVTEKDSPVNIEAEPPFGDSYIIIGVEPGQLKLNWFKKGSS
T2 sequence (P27915 571-678, tags left off): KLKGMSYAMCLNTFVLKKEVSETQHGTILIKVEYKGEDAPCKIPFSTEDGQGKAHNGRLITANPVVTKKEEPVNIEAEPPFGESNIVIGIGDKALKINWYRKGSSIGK

B1: antibody D88 (antibody, V domains shown)
VH: QVQLVQSGAEVKKPGASVKVSCKAGFNIKDVYMSWVRQAPEQGLEWMGRIDPENGDTKYDPKLQGRVTMTADTSTNTAYMELRSLRSDDTAVYYCARGWEGFAYWGQGTLVTVSS
VL: DIVMTQSPASLAVSLGERATISCRASENVDKYGNSFMHWYQQKPGQPPKLLIYRASELQWGVPDRFSGSGSGTDFTLTISSLQAEDVAVYYCQRSNEVPWTFGQGTKLEIK
notes: also called mAb D88
Usually Kd stands for the concentration at which binding is half-saturated. A higher Kd goes with lower affinity. Consider B1, for which the Kd in experiment [1] is under 100 pM; in [2] it was 1210 pM; in experiment [3], 7900 pM; in experiment [4], under 100 pM; in experiment [5], under 100 pM; in experiment [6], 3360 pM. The Kd in experiment [7] is 16 pM; in experiment [8], under 100 pM; in [9] it was under 100 pM.
